Results taken from patent US20070087411A1.

Molecular target: recombinant human IL-1β (human) (UniProt P01584)
Test: cell-based or functional assay

Chain of UniProt P01584 (P01584 117-269 limits assumed): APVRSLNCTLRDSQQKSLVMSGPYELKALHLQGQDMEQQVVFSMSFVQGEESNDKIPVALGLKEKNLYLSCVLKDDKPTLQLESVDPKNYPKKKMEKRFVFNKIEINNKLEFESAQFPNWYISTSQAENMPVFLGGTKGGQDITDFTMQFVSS

| IC50 pM (HEK293/NFκB-luciferase bioassay, IL-1β at 4 pM) [pM] | Substance |
| --- | --- |
| 100 | hIL-1RAcp.hIL-1R1.TG.hFc.ARA.CTP.TG.hFc (Fc fusion) |
| 3400 | hIL-1RAcp.hIL-1R1.myc.myc.His6 (receptor) |
| 23 | hIL-1RI.TG.hFc.ARA.CTP.TG.hFc.ARA.hIL-1RAcP (Fc fusion) |
